{"source": "paper PMC5433087", "data": [{"target": "HER3 (Human, His-tagged; Sino Biological) (human) (UniProt P21860)", "sequence (P21860 20-643)": "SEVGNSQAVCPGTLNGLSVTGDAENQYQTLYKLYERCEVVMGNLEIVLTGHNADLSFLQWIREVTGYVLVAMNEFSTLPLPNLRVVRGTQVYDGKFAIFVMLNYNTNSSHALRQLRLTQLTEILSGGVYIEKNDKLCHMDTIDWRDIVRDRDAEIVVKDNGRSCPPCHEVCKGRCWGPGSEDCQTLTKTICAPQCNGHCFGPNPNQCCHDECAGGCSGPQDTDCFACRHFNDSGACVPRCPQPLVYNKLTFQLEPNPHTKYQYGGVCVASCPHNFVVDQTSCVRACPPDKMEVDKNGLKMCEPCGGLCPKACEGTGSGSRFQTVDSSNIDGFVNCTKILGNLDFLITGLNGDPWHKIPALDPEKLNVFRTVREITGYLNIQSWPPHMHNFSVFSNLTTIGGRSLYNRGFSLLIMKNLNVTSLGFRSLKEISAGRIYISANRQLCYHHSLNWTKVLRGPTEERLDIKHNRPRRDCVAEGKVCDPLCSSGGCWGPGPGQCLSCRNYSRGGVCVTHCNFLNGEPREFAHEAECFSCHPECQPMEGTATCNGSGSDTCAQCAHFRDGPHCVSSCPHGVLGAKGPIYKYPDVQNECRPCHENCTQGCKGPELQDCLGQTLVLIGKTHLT", "assay": "SPR", "units": {"Kd": "nM"}, "values": [{"substance": "bivalent HER3 affibody (two Z_(05413) domains joined by a spacer of three repeat units) (designed binder)", "Kd": 0.327}, {"substance": "trivalent HER3 affibody (three Z_(05413) domains joined by spacers of three repeat units) (designed binder)", "Kd": 2.34}, {"substance": "monovalent HER3 affibody (Z_(05413) affibody) (designed binder)", "Kd": 0.316}]}]}
